± gives the uncertainty stated by the source.
Experiment: protein stability index of a GFP-peptide fusion (yeast GPS) (PSI 1-4); higher = more stable; sorted into four equal gates, so the index is relative within each strain
Outline: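 The protein stability index combines read frequencies across sorting gates, each weighted by its gate number and then summed. To obtain those frequencies, a pooled yeast library of GFP fusions to tiled 17-residue yeast protein peptides, on a plasmid also expressing Cherry, was grown to mid-log phase in leucine-free medium. The cells were sorted into four equal gates by GFP/Cherry ratio before plasmid amplification by PCR and Illumina sequencing.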

| Sequence | protein stability index (doa10∆) | protein stability index (pdr5∆) | protein stability index (san1∆) | protein stability index (ubr1∆) |
| --- | --- | --- | --- | --- |
| QEGLITTTMLQLFSTFD [SSN2] | 2.58 ± 0.051 | 2.57 ± 0.072 | 2.55 ± 0.056 | 2.61 ± 0.034 |
| KRVDFSGRTVISPDPNL [RPO31] | 2.44 ± 0.1 | 2.65 ± 0.11 | 3.2 ± 0.14 | 2.83 ± 0.086 |
| DDFTDAIQFVKENELLF [YCS4] | 2.1 ± 0.082 | 2.04 ± 0.061 | 2.58 ± 0.16 | 1.92 ± 0.07 |
| TVEPVYQMHIKTSKDIA [FAS1] | 1.29 ± 0.044 | 1.33 ± 0.063 | 1.31 ± 0.081 | 1.35 ± 0.065 |
| KYRPETAAEKKERLTKE [RPL8A] | 3.08 ± 0.081 | 2.76 ± 0.076 | 3.12 ± 0.056 | 3.01 ± 0.067 |
| TCVTCHWNLPGERIFNK [SIR2] | 2.87 ± 0.14 | 2.88 ± 0.11 | 2.82 ± 0.091 | 3.19 ± 0.083 |
| MGRVRTKTVKRASKALI [RPS17A] | 3.05 ± 0.12 | 1.87 ± 0.086 | 3.1 ± 0.069 | 1.52 ± 0.06 |
| QSSRVVSLSQLLFIVGQ [YCS4] | 1.75 ± 0.063 | 1.33 ± 0.048 | 1.83 ± 0.11 | 1.4 ± 0.054 |
| AIFPYQDPIFGSVLLTL [ECM29] | 1.69 ± 0.045 | 1.84 ± 0.057 | 1.29 ± 0.12 | 1.45 ± 0.044 |
| LEHDVEYRPFSKKVLEC [DIS3] | 3.4 ± 0.18 | 3.6 ± 0.1 | 3.48 ± 0.07 | 3.37 ± 0.073 |
| NDIDDLDMELAELDPSL [SEC65] | 3.34 ± 0.15 | 3.23 ± 0.089 | 3.08 ± 0.077 | 3.03 ± 0.073 |
| DDNNNNNNNNNNNNSTR [GRR1] | 2.95 ± 0.045 | 3.02 ± 0.042 | 2.95 ± 0.041 | 3.03 ± 0.054 |
| DNSESHPFIPLLKEKPN [RRP6] | 1.93 ± 0.066 | 1.93 ± 0.059 | 1.99 ± 0.071 | 1.99 ± 0.051 |
| IKIKSLEYEISKLKKET [YIL149C/MLP2] | 2.97 ± 0.26 | 2.97 ± 0.096 | 2.99 ± 0.075 | 3.06 ± 0.07 |
| SMNATMRNFSKQNQDSK [YDL088C/ASM4] | 2.86 ± 0.14 | 2.99 ± 0.24 | 1.94 ± 0.27 | 2.84 ± 0.24 |
| NLRKSRGMLGLLEPPAK [RPO31] | 1.61 ± 0.22 | 1.18 ± 0.21 | – | – |
| PQAILAKNSIIDSSNLP [SWI1] | 2.02 ± 0.061 | 2.42 ± 0.061 | 2.32 ± 0.05 | 2.36 ± 0.04 |
| DKLSGCYAPRPSAGPHK [RPS4A] | 2.2 ± 0.065 | 1.96 ± 0.063 | 1.76 ± 0.099 | 1.64 ± 0.041 |
| QEDFEVVEEFTPVVLAT [RPS5] | 3.1 ± 0.091 | 2.45 ± 0.059 | 2.3 ± 0.046 | 2.31 ± 0.042 |
| QRTATLCLEKLMCLSSK [YCS4] | 1.6 ± 0.049 | 2.29 ± 0.075 | 2.49 ± 0.11 | 1.78 ± 0.057 |
| IDYALTAVKQGVTSLGI [PRE8] | 2.27 ± 0.072 | 2.07 ± 0.056 | 1.93 ± 0.071 | 1.62 ± 0.085 |
| KLHHDLKLCLGDHSSVP [YMR129W/POM152] | 2.83 ± 0.058 | 3.09 ± 0.054 | 2.95 ± 0.053 | 2.96 ± 0.042 |
| KDEETTEKARLIDFEYV [RRI2] | 3.21 ± 0.098 | 3.5 ± 0.14 | 3.56 ± 0.073 | 3.13 ± 0.11 |
| TGIFMAMHYSSNIELAF [COB] | 1.3 ± 0.065 | 1.51 ± 0.063 | 1.24 ± 0.12 | 1.5 ± 0.078 |
| GAFTIALAYAGTGNNSA [RPN2] | 2.09 ± 0.068 | 2.32 ± 0.083 | 1.99 ± 0.099 | 2.15 ± 0.053 |
| GMIYNKLFVSKEHAPYT [FAS2] | 3.12 ± 0.091 | 2.2 ± 0.092 | 2.24 ± 0.17 | 2.41 ± 0.1 |
